According to the supplement of paper PMC9876800:

Test system: peptide library, one residue held at a place counted from the S/T acceptor
Experiment: relative phosphorylation of the sub-library (ratio to the mean residue at this position); higher = residue favoured
Procedure, shortened: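 Relative sub-library phosphorylation, a ratio to the mean residue at that position, was obtained by phosphorimaging and densitometry of spots on streptavidin membranes. Before capture, purified recombinant kinases were incubated for 90 min under kinase-specific conditions with 50 μM biotinylated degenerate peptide sub-libraries and 50 μM ATP spiked with γ-32P-ATP. Each sub-library fixed one residue at one position around a central Ser/Thr.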

Sequence of DAPK2, construct: Full length, human (Q9UIK4 whole entry, looked up): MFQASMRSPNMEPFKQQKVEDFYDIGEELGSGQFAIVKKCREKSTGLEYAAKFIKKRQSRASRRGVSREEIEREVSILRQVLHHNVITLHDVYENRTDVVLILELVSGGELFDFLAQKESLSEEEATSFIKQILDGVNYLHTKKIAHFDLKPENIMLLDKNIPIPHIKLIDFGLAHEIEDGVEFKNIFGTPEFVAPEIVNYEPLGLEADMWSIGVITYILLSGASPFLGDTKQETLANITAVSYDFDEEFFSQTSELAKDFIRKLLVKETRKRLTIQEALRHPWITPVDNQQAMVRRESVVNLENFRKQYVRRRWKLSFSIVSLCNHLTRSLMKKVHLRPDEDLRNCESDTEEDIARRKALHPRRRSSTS

DAPK2, construct: Full length, human (from UniProt Q9UIK4)
relative phosphorylation
Details	at +1	at +2	at +3	at +4	at -1	at -2	at -3	at -4	at -5
A fixed	0.947	0.886	0.931	0.893	0.907	1.2	0.902	1.03	1.03
D fixed	1.24	0.825	0.801	0.816	0.878	0.624	0.608	0.797	0.77
E fixed	1.3	0.846	0.813	0.758	0.71	0.591	0.558	0.795	0.703
F fixed	0.985	1.1	0.998	1.22	0.902	0.704	0.778	1.03	1.02
G fixed	1.02	0.895	1.01	0.933	0.983	0.869	0.846	1.02	1.08
H fixed	0.861	0.962	0.951	1.22	0.992	1.08	0.869	0.967	0.926
I fixed	0.909	1.02	1.6	1.02	0.854	0.645	0.697	0.888	0.955
K fixed	0.739	0.891	0.842	0.837	1.22	1.23	1.59	1.12	1.09
L fixed	0.863	1.34	1.27	0.995	1.2	0.725	0.754	0.949	1.06
M fixed	1.04	1.34	0.968	0.882	1.03	0.739	0.758	0.964	0.99
N fixed	1.25	0.913	0.852	0.912	1.25	0.855	0.666	0.97	0.839
P fixed	0.736	1.04	0.983	1.09	1.11	0.775	0.881	1.04	1.08
Q fixed	1.77	0.983	0.878	0.927	0.995	0.838	0.716	0.915	0.869
R fixed	0.838	1.05	1	0.958	1.21	3.71	3.95	1.45	1.47
V fixed	0.91	0.948	1.15	0.973	0.916	0.688	0.674	0.894	0.92
W fixed	0.79	0.943	1	1.39	0.856	0.961	0.898	1.06	0.98
Y fixed	0.797	1.02	0.948	1.18	0.994	0.765	0.861	1.11	1.23
pThr fixed	1.74	1.06	0.929	0.994	0.74	0.649	0.685	0.818	0.831
pTyr fixed	1.15	1.02	1.16	1.04	0.969	0.696	0.682	0.811	0.827

DYRK1A, construct: aa147-185, human (from UniProt Q13627)
relative phosphorylation
Details	at +1	at +2	at +3	at +4	at -1	at -2	at -3	at -4	at -5
A fixed	0.555	0.855	0.76	0.819	1.27	1.63	0.864	0.989	0.962
D fixed	0.289	0.642	0.666	0.794	0.556	0.35	0.461	0.768	0.695
E fixed	0.286	0.461	0.598	0.768	0.59	0.348	0.372	0.879	0.674
F fixed	0.557	1.42	1.41	1.97	0.736	0.452	0.417	0.814	1.06
G fixed	0.692	1.03	1	1.09	0.983	0.826	1.08	1.06	1.1
H fixed	0.506	1.23	1.37	1.07	1.13	0.589	0.674	1.01	1.2
I fixed	0.488	1.4	0.957	1.01	0.726	0.605	0.387	0.928	1
K fixed	0.631	0.679	0.626	0.801	1.31	0.712	0.739	1.1	1.05
L fixed	0.463	1.6	1.36	1.04	0.887	0.785	0.467	0.936	0.92
M fixed	0.554	1.29	1.24	1.23	1.21	0.659	0.456	0.964	0.918
N fixed	0.471	0.79	0.789	0.893	0.849	0.641	0.5	0.871	0.876
P fixed	8.74	0.803	1.94	0.87	1.87	4.42	0.564	1.04	1.16
Q fixed	0.475	0.721	0.882	0.861	0.998	0.608	0.618	0.891	0.95
R fixed	0.783	0.811	0.725	0.714	1.46	2.63	8.09	2.1	1.73
V fixed	0.537	1.27	0.761	0.86	0.907	0.805	0.366	0.726	0.767
W fixed	0.54	0.941	1.03	1.23	0.708	0.486	0.497	0.934	0.814
Y fixed	0.432	1.06	0.877	0.976	0.815	0.454	0.444	1	1.13
pThr fixed	0.379	0.562	0.556	0.773	0.374	0.487	0.391	0.789	0.805
pTyr fixed	0.441	0.547	0.598	0.87	0.612	0.419	0.45	0.782	0.791
